“And” between values parts separate entries of the source, which are not always exact repeats. Equal values may be shown once.
Biological target: streptavidin (on Sera-Mag magnetic microparticles) (UniProt P22629)
Test: magnetic bead pull-down, FAM fluorescence of eluted aptamer
Conditions: 1X PBS, or 2 M NaCl, or 2 M CDHP with 1X PBS; 90 min at room temperature; elution in 250 mM NaCl, 500 mM Tris-HCl pH 8.5

Chain of streptavidin (on Sera-Mag magnetic microparticles) (P22629 25-183): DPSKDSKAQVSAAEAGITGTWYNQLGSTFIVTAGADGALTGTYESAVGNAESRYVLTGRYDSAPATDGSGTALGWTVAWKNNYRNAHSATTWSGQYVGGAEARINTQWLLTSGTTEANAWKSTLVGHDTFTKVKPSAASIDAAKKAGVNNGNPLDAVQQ

ATTGACCGCTGTGTGACGCAACACTCAAT [St-21-1 aptamer]
Kd: 0.0945 µM and 0.0754 µM and 0.07 µM

— publication PMC10783497
